Test results from patent US20260151389A1, “Use of Tetramethylpyrazine Nitrone Derivatives In The Treatment of Ischemic Stroke” (GUANGZHOU MAGPIE PHARMACEUTICALS CO., L.T.D., priority 2021, published 2026).

Test system: patients with acute ischemic stroke
Experiment: multicenter, randomized, double-blind, parallel clinical trial in acute ischemic stroke
Type: in vivo, human
Settings: thrombolytic group
Excerpt: The present invention adopts a multicenter, randomized, double-blind, parallel trial clinical research design. The patients with acute ischemic stroke included in the clinical trial-center as subjects (all signed informed consent forms) were divided into non-thrombolytic group and thrombolytic group. The non-thrombolytic group consists of the saline group and the TBN group. The thrombolytic group consists of the t-PA group and the combination group of TBN+t-PA.
Subjects of the tests: Patients diagnosed with acute ischemic stroke were selected by clinical trial centers based on the diagnostic criteria of “Chinese Guidelines for the Diagnosis and Treatment of Acute Ischemic Stroke (2018)”.
Administration method: TBN (1400 mg) is dissolved in a sodium chloride injection bag (specification: 100 mL) and administered intravenously for 30 minutes. Dose of t-PA: 0.9 mg/Kg/dose; usage: added to physiological saline, 10% of the dose is administered via injected intravenous injection immediately within 1-2 minutes, and the remaining 90% is administered via intravenous drop infusion within 60 minutes. t-PA is administered only once on the first day of acute ischemic stroke. The medication schedule of TBN: D1-D7 administered twice a day, with an interval of 12 hours, for 7 consecutive days.

B1: t-PA: tissue type plasminogen activator ateplase (t-PA), thrombolytic drug (protein, UniProt P00750 36-562, looked up)
Tissue-type plasminogen …: SYQVICRDEKTQMIYQQHQSWLRPVLRSNRVEYCWCNSGRAQCHSVPVKSCSEPRCFNGGTCQQALYFSDFVCQCPEGFAGKCCEIDTRATCYEDQGISYRGTWSTAESGAECTNWNSSALAQKPYSGRRPDAIRLGLGNHNYCRNPDRDSKPWCYVFKAGKYSSEFCSTPACSEGNSDCYFGNGSAYRGTHSLTESGASCLPWNSMILIGKVYTAQNPSAQALGLGKHNYCRNPDGDAKPWCHVLKNRRLTWEYCDVPSCSTCGLRQYSQPQFRIKGGLFADIASHPWQAAIFAKHRRSPGERFLCGGILISSCWILSAAHCFQERFPPHHLTVILGRTYRVVPGEEEQKFEVEKYIVHKEFDDDTYDNDIALLQLKSDSSRCAQESSVVRTVCLPPADLQLPDWTECELSGYGKHEALSPFYSERLKEAHVRLYPSSRCTSQHLLNRTVTDNMLCAGDTRSGGPQANLHDACQGDSGGPLVCLNDGRMTLVGIISWGLGCGQKDVPGVYTKVTNYLDWIRDNMRP
**Q.** How did the “efficacy after 90 days compared with after 30 days of treatment” value turn out when B1 was run?
**A.** no significant difference in efficacy

**Q.** And the “Lsmeans mRS” value (90th day)?
**A.** 1.61
